Measured values: patent US20140235820A1, “METHODS AND COMPOSITIONS FOR MODULATING THE Wnt PATHWAY” (Genentech, Inc., priority 2010, published 2014)
Values belong to the molecule of their own block, whether it stands above or below them. Positions of bridges follow the written chain, without caps; N, C: chain ends. Residues, ends and D or L forms follow the SMILES beside them. No end group written: not given here.

How the values were obtained:
[1] = target: T1, LRP6 E1 (Homo sapiens, UniProt O75581); test: Synthetic peptide competition binding to LRP6 E1; settings: synthetic peptides
T1 construct: construct E1-amino acids A20-D325 of LPR6; made in house; host or cells: Tni insect cells (baculovirus, secreted)
T1 sequence (O75581 20-325): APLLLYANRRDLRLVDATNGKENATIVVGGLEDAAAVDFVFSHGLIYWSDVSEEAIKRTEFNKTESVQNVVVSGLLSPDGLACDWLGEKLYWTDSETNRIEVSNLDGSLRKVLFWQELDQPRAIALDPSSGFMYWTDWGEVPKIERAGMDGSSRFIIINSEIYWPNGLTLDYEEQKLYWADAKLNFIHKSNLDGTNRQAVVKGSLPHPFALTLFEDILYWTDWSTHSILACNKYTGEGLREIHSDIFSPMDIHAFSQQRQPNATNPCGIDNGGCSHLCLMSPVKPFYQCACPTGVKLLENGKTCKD
Procedure: Alternatively, affinities were determined by fluorescence polarization (FP). A fluorescein-modified peptide probe (30 nM) was mixed with LRP5 or LRP6 E1 domain at a concentration suitable for the affinity of the particular target-probe combination (approximately Kd). Competing test agent (protein or peptide) was then added and FP monitored as a function of concentration of the test agent Inhibition constants were obtained by fitting the resulting curves to standard equations using the program KaleidaGraph (Synergy Software).
Peptide affinities were also determined by competition with phage displaying a binding peptide (competition phage ELISA). Serial dilutions of test peptide were mixed with an appropriate (non-saturating) concentration of phage before exposing the mixture to target and allowing it to reach equilibrium. After washing to remove unbound material, bound phage were detected by incubation with anti-M13 antibody-horseradish peroxidase (HRP) conjugate and exposure to a suitable colorometric HRP substrate.
Finally, peptide affinities were also determined by competition ELISA. Maxi-Sorb plates (Nunc) were coated with streptavidin or NeutrAvidin (5 μg/mL in phosphate-buffered saline (PBS); overnight, 4° C.) then blocked with 0.2% bovine serum albumin (BSA) in PBS (1 h, room temperature). A solution (500 nM in PBS) of biotinylated E1-binding peptide Ac-[…](biotin)-am (disulfide) was added to each well for 30 min, and the wells were then washed 3× with PBS containing 0.05% Tween-20 to remove excess peptide. His-tagged E1 domain or FLAG-tagged E1E2 protein (5-10 nM final concentration) was preincubated for 15 minutes with serially diluted test peptide before addition of the mixture to wells of the assay plate for 30 min. Wells were washed and then probed for bound LRP6 by addition of Qiagen penta His-HRP conjugate or Sigma anti-FLAG M2 HRP conjugate (1:2000 dilution in PBS, 0.2% BSA, 0.05% Tween-20) for 30 min. After washing, TMB substrate was added (Kirkegaard and Perry Laboratories). Wells were quenched with 1 M H3PO4 and plates read at 450 nm. […]

[2] = target: T2, human LRP6 construct E1 (amino acids A20-D325) (human, UniProt O75581 20-325); test: X-ray co-crystal structure
T2 construct: range 20-325; In the Fab crystal E1 arose from E1E2 degraded beyond Arg 335; residues Ala20 to Lys324 were traced; also called LRP6 E1; E1 domain
T2 sequence (looked up): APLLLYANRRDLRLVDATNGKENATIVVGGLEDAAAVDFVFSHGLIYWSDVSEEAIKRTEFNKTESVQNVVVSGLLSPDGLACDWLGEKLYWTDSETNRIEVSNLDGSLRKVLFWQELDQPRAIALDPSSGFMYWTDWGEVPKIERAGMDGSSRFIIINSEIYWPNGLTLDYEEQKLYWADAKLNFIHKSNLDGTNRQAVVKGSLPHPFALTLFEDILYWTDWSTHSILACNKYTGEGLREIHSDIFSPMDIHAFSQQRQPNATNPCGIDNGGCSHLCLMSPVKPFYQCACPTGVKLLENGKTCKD
Description: The diffraction data were collected using a monochromatic X-ray beam (12398.1 eV) at the Advanced Light Source (ALS) beam line 5.0.2. The X-ray detection device was an ADSC quantum-210 CCD detector placed 350 mm away from the crystal. Alternatively, data were collected at Stanford Synchrotron Radiation Laboratory (SSRL71), Advanced Photon Souce (APS211DF), or in-house using a Rigaku X-ray generator model 007HF coupled to a Rigaku CCD camera (007HF/Saturn 944+). Prior to data collection, crystals were transferred into cryo-protective solutions containing 25% glycerol, followed by flash freezing in liquid nitrogen. Rotation method was applied to a single crystal for collection of the complete data set, with 1° oscillation per frame and total wedge size of 180°. The data were then indexed, integrated, and scaled using program HKL2000 (45). The LRP6 E1/Fab structure was phased by the molecular replacement (MR) method using program Phaser (CCP4, Daresbury, England). […] The search models of Fab subunits were derived from the crystal structure of an HGFA/Fab complex (46). The search model of the β-propeller domain was a homology model generated through the ESyPred3D web server (47); the structure of the extracellular domain of LDL receptor (48) was used as the homology modeling template. […] LRP6-peptide complex structures were determined by molecular replacement, using the LRP6E1 domain from the Fab complex as the search model. Peptides were built manually into the electron density. Manual rebuilding was done with the program COOT (49). Structure refinement was carried out with programs REFMAC5 (50) and PHENIX (51) using the maximum likelihood target functions, anisotropic individual B-factor refinement (peptide complexes only.

[3] = tested on: LRP6 E1E2 variants with LRP5 BMD substitutions; test: Steady-state affinity for LRP6 E1E2 variants carrying LRP5 BMD substitutions; assay type: binding, human
Procedure: FIG. 13. Introduction of LRP5 BMD substitutions into LRP6 E1E2 lowers affinity for Wnt inhibitors. The five substitutions characterized are indicated on the y-axis. Steady-state affinity measurements were made for Wnt9b, Dkk1, and sclerostin binding to each of the LRP6 variants.
(§1) Binding kinetics were measured by biolayer interferometry using an Octet Red instrument (ForteBio) as previously described (11). Streptavidin (SA) biosensors were loaded with biotinylated hLRP6 in 50 mMTris, pH 8, 300 mM NaCl, 5% (v/v) glycerol, and 0.05% (w/v) Triton X-100. The loaded biosensors were washed in the same buffer before carrying out association and dissociation measurements for the indicated times. The Kd of each interaction was determined using steady state-analysis through the Octet Red software v6.3. Each reported value represents an average of three or more experiments at different concentrations, with a fitted experimental curve for which the square of the correlation coefficient (R^2) is above 0.96.
Cells transfected with LRP5 variants carrying BMD mutations show reduced binding to sclerostin and are less sensitive to sclerostin inhibition of Wnt10b or Wnt6 signaling (70). To further test the effects of the BMD substitutions, we introduced several of them into LRP6 E1E2, with the results shown in FIG. 13. LRP6 E1E2 Gly158Val could not be expressed in insect cells. […] Importantly, not only is the binding to sclerostin affected (70), but the binding of Dkk1 to its E1 interaction site is also impaired.

[4] = target: T3, human LRP6 construct E1E2 (amino acids A20-E631) (human, UniProt O75581 20-631, biotinylated for biolayer interferometry); test: BLI affinity
T3 construct: range 20-631; also called LRP6 E1E2
T3 sequence (looked up): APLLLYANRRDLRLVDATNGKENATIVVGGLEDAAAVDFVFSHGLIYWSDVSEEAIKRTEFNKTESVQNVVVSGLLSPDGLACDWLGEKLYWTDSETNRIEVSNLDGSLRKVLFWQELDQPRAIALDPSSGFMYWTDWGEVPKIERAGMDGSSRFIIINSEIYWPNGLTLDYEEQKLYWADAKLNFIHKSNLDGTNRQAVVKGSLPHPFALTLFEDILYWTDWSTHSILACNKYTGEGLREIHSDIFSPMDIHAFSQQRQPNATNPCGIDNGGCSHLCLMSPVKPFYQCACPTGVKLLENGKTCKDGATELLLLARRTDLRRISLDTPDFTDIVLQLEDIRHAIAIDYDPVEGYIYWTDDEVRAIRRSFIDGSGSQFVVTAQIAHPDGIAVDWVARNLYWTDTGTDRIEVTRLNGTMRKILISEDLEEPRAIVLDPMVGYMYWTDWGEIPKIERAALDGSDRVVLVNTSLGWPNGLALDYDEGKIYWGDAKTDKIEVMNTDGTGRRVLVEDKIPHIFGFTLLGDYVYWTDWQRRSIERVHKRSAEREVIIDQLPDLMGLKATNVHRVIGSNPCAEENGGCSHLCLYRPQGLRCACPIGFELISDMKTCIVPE
Procedure: as §1, with “(R²)” for “(R^2)”

[5] = tested on: Wnt1-dependent signaling; test: Wnt-dependent TOPbrite luciferase reporter assay, cells transfected with Wnt1; assay type: cell-based; settings: cells stably transfected with reporter, transiently with Wnt1
Procedure: FIG. 12. Induction of a Wnt/β-catenin reporter in the presence or absence of wild-type and mutant inhibitors. Cells were transfected by Wnt1 (binds to LRP6 E1E2). Dkk1 and sclerostin variants, or the control inhibitor Fz8 CRD, were used at the indicated doses.
Wnt signaling was assessed either in mouse fibroblast L-cells or in HEK293s cells. The luciferase reporter assay in 293 cells was performed as described (52). The mouse fibroblast L-cell imaging assay was conducted essentially as described(53). Cells were treated with Wnt3a, Fz8 CRD ((US Patent Publication 20080299136; (54), LRP6, or Dkk1, or combinations of these proteins, as indicated and processed after an additional 6 h at 37° C./5% CO2.
To test whether the observed effects on binding between purified proteins were relevant to cellular signaling, Dkk1 and sclerostin activities were tested further in a Wnt-dependent TOPbrite luciferase reporter assay (52). Cells stably transfected with reporter were transfected transiently with Wnt1. The Wnt-transfected cells were treated with purified Dkk1 or sclerostin variants, and the effect on reporter induction was measured (FIG. 12). […] This is consistent with earlier observations that Wnt1 belongs to a class of Wnts signaling through the E1E2 portion of to LRP5/6 (11, 52). The Dkk1 and sclerostin mutants show activities consistent with their binding to LRP6 (FIG. 12). Sclerostin Ile119Glu (“NXI” motif) is impaired relative to wild-type in its ability to inhibit Wnt1-driven signaling, as is Dkk1 Ile42Glu.

binding / affinity for LRP6 E1 (in words) [1]: binds
Molecule: CC[C@H](C)[C@@H]1NC(=O)[C@H](CO)NC(=O)[C@H](CC(N)=O)NC(=O)[C@H]([C@@H](C)O)NC(=O)[C@@H](NC(=O)[C@@H](N)CO)CSSC[C@@H](C(=O)N[C@@H](Cc2ccc(O)cc2)C(=O)NCC(=O)O)NC(=O)[C@H](CCC(N)=O)NC(=O)[C@@H]2CCCN2C(=O)[C@@H]2CCCN2C1=O [BBI mimetic] (H-SCTNSIPPQCYG-OH; disulfide 2-10; N-terminus and C-terminus assumed)

binding / affinity for LRP6 E1 (in words) ([1]; listed as cyclized peptide): binds
Molecule: amide-cyclized variant of the Dkk1 7-mer peptide: Dkk1 7-mer with Ser2 substituted by Lys and Asn7 by Asp, side chains joined by an amide bond (NKNAIKD; lactam 2-7)
binding / affinity for LRP6 E1 (in words) ([1]; listed as target cyclic peptide): affinity equivalent to the parent Dkk1 peptide

binding result [2]: binds
B1: Ac-GSLCSNRIKPDTHCSS-am (disulfide) (peptide)
peptide: Ac-GSLCSNRIKPDTHCSS-NH2
modifications: disulfide 4-14 (inferred)
notes: also called Peptide C; CX9C class member of Exemplary Family 2

binding result [2]: binds
B2: Ac-CNSIKLC-am (disulfide) (peptide)
peptide: Ac-CNSIKLC-NH2
modifications: disulfide 1-7 (inferred)
notes: also called CX5C class member of Exemplary Family 2

binding result [2]: binds
B3: Ac-SNSIKFYA-am (peptide)
peptide: Ac-SNSIKFYA-NH2
notes: also called linear peptide from Exemplary Family 1; parent Ile peptide

effect of LRP6 BMD mutations on binding to LRP6 E1E2 (in words) [3]: little to no effect
B4: Wnt9b: Wnt9b, carrier-free protein from R&D Systems (protein, UniProt O14905 23-357, looked up)
Protein Wnt-9b: SYFGLTGREVLTPFPGLGTAAAPAQGGAHLKQCDLLKLSRRQKQLCRREPGLAETLRDAAHLGLLECQFQFRHERWNCSLEGRMGLLKRGFKETAFLYAVSSAALTHTLARACSAGRMERCTCDDSPGLESRQAWQWGVCGDNLKYSTKFLSNFLGSKRGNKDLRARADAHNTHVGIKAVKSGLRTTCKCHGVSGSCAVRTCWKQLSPFRETGQVLKLRYDSAVKVSSATNEALGRLELWAPARQGSLTKGLAPRSGDLVYMEDSPSFCRPSKYSPGTAGRVCSREASCSSLCCGRGYDTQSRLVAFSCHCQVQWCCYVECQQCVQEELVYTCKH
change in affinity for the LRP6 E1E2 BMD variants compared to wild type ([3]; five substitutions characterized): ≤ 5 fold

fold loss in affinity against wild-type sclerostin [4]: 19 fold
B5: Sclerostin Ile119Glu (ligand, UniProt Q9BQB4 24-213, looked up)
chain: QGWQAFKNDATEIIPELGEYPEPPPELENNKTMNRAENGGRPPHHPFETKDVSEYSCRELHFTRYVTDGPCRSAKPVTELVCSGQCGPARLLPNAEGRGKWWRPSGPDFRCIPDRYRAQRVQLLCPGGEAPRARKVRLVASCKCKRLTRFHNQSELKDFGTEAARPQKGRKPRPRARSAKANQAELENAY
notes: also called sclerostin I119E
inhibition of Wnt1-dependent signaling (reporter induction) [5]: impaired

binding result [2]: binds
B6: Ac-CNSIKCL-am (disulfide) (peptide)
peptide: Ac-CNSIKCL-NH2
modifications: disulfide 1-6 (inferred)
notes: also called CX4C class member of Exemplary Family 2
